Patent US20190352387A1 (Chugai, published 2019)
Blank lines part the entries; values can stand above or below the binder they belong to.

Experiments:
[1] = target: T1, Recombinant mouse sclerostin (mouse, UniProt Q99P68 24-211); assay: cell-based or functional assay
T1 sequence: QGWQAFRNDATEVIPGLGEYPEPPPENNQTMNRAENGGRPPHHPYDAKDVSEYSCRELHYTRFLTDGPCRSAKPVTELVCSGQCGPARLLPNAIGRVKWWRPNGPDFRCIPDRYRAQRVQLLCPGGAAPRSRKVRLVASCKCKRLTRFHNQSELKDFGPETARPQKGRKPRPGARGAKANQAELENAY

Mouse Fc gamma RIIB = target: T2, Mouse Fc gamma RIIB (mouse, UniProt P08101 30-210, limits assumed); assay: SPR (Biacore T200), pH 7.4, 25 degrees C; mouse Fc gamma RIIB captured by anti-Histidine antibody; antibody injected at 100 nM alone or as 1:1 immune complex with human sclerostin
T2 sequence (looked up): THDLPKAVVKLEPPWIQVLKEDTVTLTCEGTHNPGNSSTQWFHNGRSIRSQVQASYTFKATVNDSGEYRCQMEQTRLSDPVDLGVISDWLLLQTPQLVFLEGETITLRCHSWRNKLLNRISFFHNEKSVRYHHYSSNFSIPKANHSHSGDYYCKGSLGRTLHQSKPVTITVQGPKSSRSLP
Procedure: The binding of anti-sclerostin antibodies/sclerostin immune complex towards mouse Fc gamma RIIB at pH 7.4 were determined at 25 degrees C. using Biacore T200 instrument (GE Healthcare). All antibodies and mouse Fc gamma RIIB were prepared in ACES pH 7.4 containing 20 mM ACES, 250 mM NaCl, 1.2 mM CaCl₂, 0.05% Tween 20, 1 mg/ml BSA, 1 mg/ml carboxymethyl dextran (CMD), 0.005% NaN₃. Anti-Histidine antibody (GE Healthcare) was immobilized onto all flow cells of a CM4 sensor chip using amine coupling kit (GE Healthcare). Mouse Fc gamma RIIB was captured on flow cell 2 by anti-Histidine antibody with flow cell 1 as reference flow cell. Mouse Fc gamma RIIB capture levels were aimed at 400 resonance unit (RU). All antibodies were injected at 100 nM over all flow cells. Immune complexes were prepared by mixing 1:1 molar ratio of antibody and human sclerostin and incubated at room temperature for one hour. Sensor surface was regenerated each cycle with 10 mM Glycine-HCl, pH1.5.

[2] = target: T3, Recombinant human sclerostin (human, UniProt Q9BQB4 24-213); assay: SPR; captured antibody, recombinant human SOST as analyte; response normalised by the capture level of the antibody [panel abL081]
T3 construct: Whole entry as named; Secreted recombinant protein purified from FreeStyle293-F conditioned medium; also called human-SOST; Human SOST
T3 sequence: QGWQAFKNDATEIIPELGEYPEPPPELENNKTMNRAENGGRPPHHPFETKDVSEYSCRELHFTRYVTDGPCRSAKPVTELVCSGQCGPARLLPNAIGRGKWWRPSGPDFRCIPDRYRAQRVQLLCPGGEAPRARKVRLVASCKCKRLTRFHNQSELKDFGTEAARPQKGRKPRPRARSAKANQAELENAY

[3] = target: T3, Recombinant human sclerostin; assay: SPR (Biacore), dissociation at pH 7.4
Procedure: (§1) The affinity of anti-sclerostin variants binding to human, cynomolgus monkey (cyno), rat, or mouse sclerostin at pH 7.4 and pH 5.8 were determined at 37 degrees C. using Biacore T200 instrument (GE Healthcare). Anti-human Fc (GE Healthcare) was immobilized onto all flow cells of a CM4 sensor chip using amine coupling kit (GE Healthcare). All antibodies and analytes were prepared in ACES pH7.4 or pH 5.8 buffer containing 20 mM ACES, 150 mM NaCl, 1.2 mM CaCl₂, 0.05% Tween 20, 0.005% NaN₃. Each antibody was captured onto the sensor surface by anti-human Fc. […] Sensor surface was regenerated each cycle with 3M MgCl₂.

[4] = target: T3, Recombinant human sclerostin; assay: SPR; captured antibody, recombinant human SOST as analyte; response normalised by the capture level of the antibody [panel abL083]
[5] = target: T3, Recombinant human sclerostin; assay: SPR; captured antibody (SG1/SK1 constant regions), recombinant human SOST as analyte; response normalised by the capture level of the antibody [panel mabAL]
[6] = target: T3, Recombinant human sclerostin; assay: SPR; captured antibody (SG1/SK1 constant regions), recombinant human SOST as analyte; response normalised by the capture level of the antibody [panel mabBL]
[7] = target: T3, Recombinant human sclerostin; assay: SPR (Biacore T200), 37 C, dissociation at pH 5.8 of complex formed at pH 7.4
Procedure: as §1
(§2) The pH dependent interaction assessment was determined by a modified Biacore assay. Briefly, an additional dissociation phase at pH5.8 was integrated into the Biacore assay immediately after dissociation phase at pH7.4. This is to assess the pH-dependent dissociation between antibody and antigen from the complexes formed at pH7.4. The dissociation rate at pH5.8 buffer was determined by processing and fitting data using Scrubber 2.0 (BioLogic Software) curve fitting software.

[8] = target: T4, Recombinant cynomolgus monkey sclerostin (cynomolgus monkey, UniProt Q9BG78 24-213 (Chlorocebus aethiops entry)); assay: as above
T4 construct: Whole entry as named; expressed and purified as the human counterpart; also called cyno-SOST; cyno SOST
T4 chain: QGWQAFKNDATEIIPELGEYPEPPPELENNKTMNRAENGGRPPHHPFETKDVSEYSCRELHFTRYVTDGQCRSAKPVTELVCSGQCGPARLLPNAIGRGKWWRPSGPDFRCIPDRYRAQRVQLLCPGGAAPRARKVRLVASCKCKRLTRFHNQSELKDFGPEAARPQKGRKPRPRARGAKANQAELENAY
Procedure: as §1, §2

[9] = target: T3, Recombinant human sclerostin; assay: SPR (Biacore T200), 37 C, antibody captured by anti-human Fc, sclerostin as analyte, pH 5.8
Procedure: as §1

[10] = target: T4, Recombinant cynomolgus monkey sclerostin; assay: SPR (Biacore T200), 37 C, antibody captured by anti-human Fc, sclerostin as analyte, pH 7.4
Procedure: as §1

[11] = target: T4, Recombinant cynomolgus monkey sclerostin; assay: SPR (Biacore), dissociation at pH 7.4
Procedure: as §1

[12] = target: T5, Recombinant rat sclerostin (rat, UniProt Q99P67 29-213); assay: SPR (Biacore T200), 37 C, dissociation at pH 5.8 of complex formed at pH 7.4
T5 construct: Whole entry as named; also called rat-SOST
T5 sequence: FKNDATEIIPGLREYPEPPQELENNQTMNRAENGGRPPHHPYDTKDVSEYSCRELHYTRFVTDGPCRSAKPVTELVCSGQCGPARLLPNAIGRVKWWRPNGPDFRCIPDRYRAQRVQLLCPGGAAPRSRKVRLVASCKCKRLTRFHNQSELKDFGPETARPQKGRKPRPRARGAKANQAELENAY
Procedure: as §1, §2

[13] = target: T1, Recombinant mouse sclerostin; assay: as above
Procedure: as §1, §2

[14] = target: T5, Recombinant rat sclerostin; assay: SPR (Biacore T200), 37 C, antibody captured by anti-human Fc, sclerostin as analyte, pH 5.8
Procedure: as §1

IC50 (read off the curve); Wnt1-induced TCF/LEF luciferase reporter in HEK293T cells, % Inhibition of mouse SOST [1]: ~7 µg/mL | binding result (Mouse Fc gamma RIIB): binds
B1: mabB//mabA-BS01 (bispecific antibody, human IgG1, kappa)
heavy 1: QVQLVQSGAEVKKPGASVKVSCKVSGFPIKDTFQHWVRQAPGKGLEWMGWSDPEIGDTEYASKFQGRVTMTEDTSTDTAYMELSSLRSEDTAVYYCATGDTTYKFDFWGQGTTVTVSSASTKGPSVFPLAPSSRSTSESTAALGCLVKDYFPEPVTVSWNSGALTSGVHTFPAVLQSSGLYSLSSVVTVPSSSLGTKTYTCNVDHKPSNTKVDKRVEPKSCDKTHTCPPCPAPELLGGPSVFLFPPKPKDTLMISRTPEVTCVVVDVSQEDPEVQFNWYVDGVEVHNAKTKPREEQFNSTYRVVSVLTVLHQDWLNGKEYKCKVSNKGLPSSIEKTISKAKGQPREPQVYTLPPSREEMTKNQVSLTCLVKGFYPSDIAVEWESNGQPENNYKTTPPYLDSDGSFFLYSKLTVDKSRWQQGNVFSCSVMHEALHNHYTQESLSLSP
light 1: DIQMTQSPSSLSASVGDRVTITCKASQDVHTAVAWYQQKPGKAPKLLIYWASTRWTGVPSRFSGSGSGTDFTLTISSLQPEDFATYYCQQYSDYPWTFGGGTKVEIKRTVAAPSVFIFPPSDEQLKSGTASVVCLLNNFYPREAKVQWKVDNALQSGNSQESVTEQDSKDSTYSLSSTLTLSKADYEKHKVYACEVTHQGLSSPVTKSFNRGEC
heavy 2: EVQLVQSGAEVKKPGASVKVSCKASGYTFTDYNMHWVRQAPGQGLEWMGEINPNSGGAGYNQKFKGRVTMTTDTSTSTAYMELRSLRSDDTAVYYCARLGYDDIYDDWYFDVWGQGTTVTVSSASTKGPSVFPLAPSSRSTSESTAALGCLVKDYFPEPVTVSWNSGALTSGVHTFPAVLQSSGLYSLSSVVTVPSSSLGTKTYTCNVDHKPSNTKVDKRVEPKSCDKTHTCPPCPAPELLGGPSVFLFPPKPKDTLMISRTPEVTCVVVDVSQEDPEVQFNWYVDGVEVHNAKTKPREEQFNSTYRVVSVLTVLHQDWLNGKEYKCKVSNKGLPSSIEKTISKAKGQPREPQVYTLPPSRKEMTKNQVSLTCLVKGFYPSDIAVEWESNGQPENNYKTTPPYLDSDGSFFLYSKLTVDKSRWQQGNVFSCSVMHEALHNHYTQKSLSLSP
light 2: not shown

binding result [6]: no binding
B6: mabA heavy chain combined with the mabB light chain (mabBL) (antibody, human IgG1, kappa, V domains shown)
VH: EVQLVQSGAEVKKPGASVKVSCKASGYTFTDYNMHWVRQAPGQGLEWMGEINPNSGGAGYNQKFKGRVTMTTDTSTSTAYMELRSLRSDDTAVYYCARLGYDDIYDDWYFDVWGQGTTVTVSS
VL: DIQMTQSPSSLSASVGDRVTITCKASQDVHTAVAWYQQKPGKAPKLLIYWASTRWTGVPSRFSGSGSGTDFTLTISSLQPEDFATYYCQQYSDYPWTFGGGTKVEIKR
notes: also called mabBL with the mabA heavy chain; Light chain B with the mabA heavy chain

koff [12]: 0.0059 s⁻¹ | koff [13]: 0.0107 s⁻¹ | Kd [14]: 4.2 nM
B9: mabA_pH1 (antibody, V domains shown)
VH: EVQLVQSGAEVKKPGASVKVSCKASGYTFTDYNMHWVRQAPGQGLEWMGEINPNSGHAGYNQKFKGRVTMTTDTSTSTAYMELRSLRSDDTAVYYCARLHYDDIYDDWYFDVWGQGTTVTVSS
VL: DIQMTQSPSSLSASVGDRVTITCRASHDISNYLNWYQQKPGKAPKLLIYYTSRLLSGVPSRFSGSGSGTDFTLTISSLQPEDFATYYCQQGDTLPYTFGGGTKVEIK

The next lines start with the binder.

B2: mabB heavy chain combined with light chain variant abL081 (antibody, human IgG1, kappa, V domains shown)
VH: QVQLVQSGAEVKKPGASVKVSCKVSGFPIKDTFQHWVRQAPGKGLEWMGWSDPEIGDTEYASKFQGRVTMTEDTSTDTAYMELSSLRSEDTAVYYCATGDTTYKFDFWGQGTTVTVSS
VL: DIQMTQSPSSLSASVGDRVTITCRASQDIHTYLAWYQQKPGKAPKLLIYWASTRWSGVPSRFSGSGSGTDFTLTISSLQPEDFATYYCQQGDTLPYTFGGGTKVEIKR
notes: also called abL081 with the mabB heavy chain
binding result [2]: binds

B3: bsH638/abL152 (antibody, V domains shown)
VH: QVQLVQSGAEVKKPGASVKVSCKVSGYTLTHTFMHWVRQAPGKGLEWMGWSDPEIGDHEYASKFQGRVTMTEDTSTDTAYMELSSLRSEDTAVYYCATGDTTYKFDYWGQGTLVTVSS
VL: DIQMTQSPSSLSASVGDRVTITCRASEGIHDALAWYQQKPGKAPKLLIYWASTLESGVPSRFSGSGSGTDFTLTISSLQPEDFATYYCQQGDTLPYTFGGGTKVEIK
notes: Homodimeric antibody
koff [3]: 0.0093 s⁻¹

B4: mabB heavy chain combined with light chain variant abL083 (antibody, human IgG1, kappa, V domains shown)
VH: QVQLVQSGAEVKKPGASVKVSCKVSGFPIKDTFQHWVRQAPGKGLEWMGWSDPEIGDTEYASKFQGRVTMTEDTSTDTAYMELSSLRSEDTAVYYCATGDTTYKFDFWGQGTTVTVSS
VL: DIQMTQSPSSLSASVGDRVTITCRASQDIHTYLAWYQQKPGKAPKLLIYWASTRLSGVPSRFSGSGSGTDFTLTISSLQPEDFATYYCQQGDTLPYTFGGGTKVEIKR
notes: also called abL083 with the mabB heavy chain
binding result [4]: binds

B5: mabB heavy chain combined with the mabA light chain (mabAL) (antibody, human IgG1, kappa, V domains shown)
VH: QVQLVQSGAEVKKPGASVKVSCKVSGFPIKDTFQHWVRQAPGKGLEWMGWSDPEIGDTEYASKFQGRVTMTEDTSTDTAYMELSSLRSEDTAVYYCATGDTTYKFDFWGQGTTVTVSS
VL: DIQMTQSPSSLSASVGDRVTITCRASQDISNYLNWYQQKPGKAPKLLIYYTSRLLSGVPSRFSGSGSGTDFTLTISSLQPEDFATYYCQQGDTLPYTFGGGTKVEIKR
notes: also called mabAL with the mabB heavy chain; Light chain A with the mabB heavy chain
binding result [5]: no binding

B7: mabA_NpH2 (antibody, V domains shown)
VH: EVQLVQSGAEVKKPGASVKVSCKASGYTFTDYNMHWVRQAPGQGLEWMGEINPNSGGAGYNQKFKGRVTMTTDTSTSTAYMELRSLRSDDTAVYYCARLGYDDIYDDWYFDVWGQGTTVTVSS
VL: DIQMTQSPSSLSASVGDRVTITCRASQDISNYLNWYQQKPGKAPKLLIYHTSRLLSGVPSRFSGSGSGTDFTLTISSLQPEDFATYYCQQGDTLPYTFGGGTKVEIK
koff [7]: 0.0023 s⁻¹ | koff [8]: 0.0018 s⁻¹ | Kd [9]: 0.69 nM | Kd [10]: 0.28 nM

B8: amH852/abL152 (antibody, V domains shown)
VH: EVQLVQSGAEVKKPGASVKVSCKASGYTFTDYNMHWVRQAPGKGLEWMGEIMPHSGRYGLKQKFKGRVTMTTDTSTSTAYMELRSLRSDDTAVYYCARLEYSEIYDDWYFDVWGQGTTVTVSS
VL: DIQMTQSPSSLSASVGDRVTITCRASEGIHDALAWYQQKPGKAPKLLIYWASTLESGVPSRFSGSGSGTDFTLTISSLQPEDFATYYCQQGDTLPYTFGGGTKVEIK
notes: Homodimeric antibody
koff [11]: 0.0019 s⁻¹
